Results as given in article PMC9569322, “Determination of the boundary lipids of sticholysins using tryptophan quenching” (Scientific Reports, 2022).

Biological target: the molecule itself
Assay: cross-linking

Row | Protein | binding result
1 | Sticholysin I (StnI), wild type (natural protein, Stichodactyla helianthus, UniProt P81662 1-176, looked up, Sticholysin I (StnI), actinoporin of the sea anemone Stichodactyla helianthus; also called StnI WT; source: E. coli RB791, purified to homogeneity) SELAGTIIDGASLTFEVLDKVLGELGKVSRKIAVGIDNESGGTWTALNAYFRSGTTDVILPEVVPNTKALLYSGRKSSGPVATGAVAAFAYYMSNGNTLGVMFSVPFDYNWYSNWWDVKIYPGKRRADQGMYEDMYYGNPYRGDNGWYQKNLGYGLRMKGIMTSAGEAKMQIKISR | binds
2 | StnI-I7C/K68C^ox (oxidized double-Cys mutant of sticholysin I) (natural protein, Stichodactyla helianthus, UniProt P81662 1-176, looked up, disulfide bridge between C7 and C68 (oxidized form), Sticholysin I (StnI) of Stichodactyla helianthus with I7C and K68C, made by site-directed mutagenesis; the disulfide holds the N-terminal alpha-helix on the beta-sandwich; Used oxidized; also called StnI CC; source: E. coli RB791, purified to homogeneity) SELAGTCIDGASLTFEVLDKVLGELGKVSRKIAVGIDNESGGTWTALNAYFRSGTTDVILPEVVPNTCALLYSGRKSSGPVATGAVAAFAYYMSNGNTLGVMFSVPFDYNWYSNWWDVKIYPGKRRADQGMYEDMYYGNPYRGDNGWYQKNLGYGLRMKGIMTSAGEAKMQIKISR | binds
3 | Sticholysin II (StnII), wild type (natural protein, Stichodactyla helianthus, UniProt P07845 1-175, looked up, Sticholysin II (StnII), actinoporin of the sea anemone Stichodactyla helianthus; also called StnII WT; StnII-WT; source: E. coli RB791, purified to homogeneity) ALAGTIIAGASLTFQVLDKVLEELGKVSRKIAVGIDNESGGTWTALNAYFRSGTTDVILPEFVPNTKALLYSGRKDTGPVATGAVAAFAYYMSSGNTLGVMFSVPFDYNWYSNWWDVKIYSGKRRADQGMYEDLYYGNPYRGDNGWHEKNLGYGLRMKGIMTSAGEAKMQIKISR | binds
4 | StnII-I6C/K67C^ox (oxidized double-Cys mutant of sticholysin II) (natural protein, Stichodactyla helianthus, UniProt P07845 1-175, looked up, disulfide bridge between C6 and C67 (oxidized form), Sticholysin II (StnII) of Stichodactyla helianthus with I6C and K67C, made by site-directed mutagenesis; the disulfide prevents the deployment of the N-terminal alpha-helix; Used oxidized; also called StnII CC; source: E. coli RB791, purified to homogeneity) ALAGTCIAGASLTFQVLDKVLEELGKVSRKIAVGIDNESGGTWTALNAYFRSGTTDVILPEFVPNTCALLYSGRKDTGPVATGAVAAFAYYMSSGNTLGVMFSVPFDYNWYSNWWDVKIYSGKRRADQGMYEDLYYGNPYRGDNGWHEKNLGYGLRMKGIMTSAGEAKMQIKISR | binds
